Experimental data as given in patent US20040115215A1.

Tests used:
[1] = molecular target: Crotalus durissus terrificus venom; assay: ELISA, C.d.t. venom-coated; dilution 1:3125
[2] = molecular target: Crotalus durissus terrificus venom; assay: ELISA, C.d.t. venom-coated; dilution 1:25
[3] = molecular target: Crotalus durissus terrificus venom; assay: ELISA, C.d.t. venom-coated; dilution 1:125
[4] = molecular target: Crotalus durissus terrificus venom; assay: ELISA, C.d.t. venom-coated; dilution 1:500
[5] = molecular target: Crotalus durissus terrificus venom; assay: ELISA, C.d.t. venom-coated; undiluted
[6] = molecular target: Crotalus durissus terrificus venom; assay: ELISA, C.d.t. venom-coated; dilution 1:125; remark: listed apart in the source
[7] = molecular target: Crotalus durissus terrificus venom; assay: ELISA, C.d.t. venom-coated; dilution 1:625
[8] = molecular target: Crotalus durissus terrificus venom; assay: ELISA, C.d.t. venom-coated; dilution 1:2,500
[9] = molecular target: Crotalus durissus terrificus venom; assay: ELISA, C.d.t. venom-coated; dilution 1:25; remark: listed apart in the source
[10] = molecular target: Crotalus durissus terrificus venom; assay: ELISA, C.d.t. venom-coated; dilution 1:5
[11] = molecular target: Crotalus durissus terrificus venom; assay: ELISA, C.d.t. venom-coated; dilution 1:625; remark: listed apart in the source
[12] = molecular target: Crotalus durissus terrificus venom; assay: ELISA, C.d.t. venom-coated; dilution 1:12,500
[13] = molecular target: Crotalus durissus terrificus venom; assay: ELISA, C.d.t. venom-coated; dilution 1:62,500
[14] = molecular target: Crotalus durissus terrificus venom; assay: ELISA, C.d.t. venom-coated; dilution 1:312,500
[15] = molecular target: Crotalus durissus terrificus venom; assay: ELISA, C.d.t. venom-coated; dilution 1:3125; remark: listed apart in the source

“preimmune IgY (from unimmunized hens or supermarket eggs) (antibody)” showed an absorbance [1] of 0.002 OD, an absorbance [2] of 0 OD and an absorbance [3] of 0.003 OD. The absorbance (412 nm filter) [4] was 0.005 OD, the absorbance [5] was 0.003 OD and the absorbance [6] was less than 0 OD. The absorbance [7] was 0 OD, the absorbance (412 nm filter) [8] was 0.004 OD and the absorbance [9] was 0.016 OD. The absorbance [10] was less than 0 OD, the absorbance [11] was less than 0 OD and the absorbance (412 nm filter) [12] was 0.001 OD. It also gave an absorbance (412 nm filter) [13] of 0.001 OD, an absorbance (412 nm filter) [14] of 0.01 OD and an absorbance [15] of less than 0 OD.
